Laboratory results taken from patent US7998923B2, “Bioactivation of particles” (The Regents of the University of California, priority 2002, dated 2011).
Square brackets hold non-standard residues; d marks the D form. Cha = N[C@@H](CC1CCCCC1)C(=O)O

Experiment: solubilization assay of CdSe/ZnS quantum dots with bioactivation peptides
Type: physicochemical
Settings: peptide coated CdSe/ZnS quantum dots, diluted from DMSO
Description: A non-limiting example of the MRP is Cha-C-C-Cha-C-C-Cha-C-C-Cha (SEQ. ID. NO. 1) with Cha standing for Cyclohexyl alanine and C for cysteine. […] All synthesis used N-Boc or F-moc protecting groups and sequences may be N-acetylated and/or C-carboxylated. The bioactivation peptides are added directly onto the particles and allowed to form a good dispersion of the quantum dots in DMSO and subsequently yielded stable and highly monodisperse dilutions of the nanocrystals in water and buffer. Stability in water and buffers is enhanced by the addition of a hydrophilic sequence at the N-terminus of the Cha-C-C-Cha . . . sequence. The following sequence was used: G-S-E-S-G-G-S-E-S-G-Cha-C-C-Cha-C-C-Cha-C-C-Cha (SEQ. ID. NO. 2).
This substitution led to aggregations of particles during the reaction and thus lack of migration on electrophoresis gels. Similarly replacing the cysteines in the binding clusters with alanine gave unstable particles that flocculate rapidly after solubilization in aqueous solvents. […]

NH2-G-S-E-S-G-G-S-E-S-G-Cha-C-C-Cha-C-C-Cha-C-C-Cha-Carboxamide (H-GSESGGSESG[Cha]CC[Cha]CC[Cha]CC[Cha]-NH2; cysteine pairing not given here) [ChaCha E swimmer]
stability in water and buffers: enhanced
